Reference: PMC8795117, “Structures and function of a tailoring oxidase in complex with a nonribosomal peptide synthetase module” (Nature Communications, 2022)
“And” between values parts separate entries of the source, which are not always exact repeats. Equal entries are not always repeated.

Target: T1, BmdC (Thermoactinomyces vulgaris F-5595)
T1 construct: BmdC, FMN-dependent oxidase of the bacillamide pathway, Thermoactinomyces vulgaris F-5595 (WP_022737638.1); RREL domain, 45-residue loop, Ox domain (residues 142-325); Co-purifies with FMN; also called oxidase BmdC; dimeric BmdC; source: E. coli BL21(DE3), purified (IMAC, CBP column, TEV cleavage, gel filtration)
Experiment: ITC; 600 μM BmdB A2 injected into 60 μM dimeric BmdC, 25 °C, 50 mM Tris-HCl pH 7.5, 200 mM NaCl, 1 mM TCEP; fitted with a binding model using a stoichiometry of 1; triplicate
Conditions: both partners purified

Kd: ~75 nM and 44 to 118 nM
B1: BmdB_A2 (domain or fragment)
chain: YNATAEPIPAATLHQLFIDQAQRTPDQVAVVFEQEWLTYSELDQRSNQVARFLQSRGIGRGDRVGVLAKRQVETIINLMAVLKAGAAYVPIDPDHPYERQTYILENSSCKILLDSDLYETMEISSYADGDLTPVAEPEDTAYVIYTSGSTGRPKGVIITHQAASNTIQDINRKFEVNEEDRIIGISSMCFDLSVYDIFGTLSAGATLVMIRDPRDMRELVRTVERRGITIWNTVPAIMDLALDHVGSHFENISLRLVLLSGDWIPLPLPAKINRHFPVADVISLGGATEASIWSIYWPIEQVEANWKSIPYGKPLANQTYYVLNYDQKMCPVGVIGDLYIGGAGLAQGYLNDDQKTKDAFIMHPEFGPIYKTGDCGRMRPEGYIEFLGRQDYQVKIQGYRVELEEISHCLLTYPDVDQAVVIDQTDERGMKFLVGYVVAQQEIDEKALRKHLMEHLPEYMIPAHLVHLEQLPLTPNGKLDRKALPVPKKQRNAEKFV
